Molecular target: T1, 重组冠状病毒S蛋白 (SARS冠状病毒棘突蛋白部分片段, 氨基酸位点257~573) (SARS冠状病毒, UniProt P59594 257-573)
T1 construct: range 257-573; also called 重组S蛋白; 重组抗原S蛋白
Assay: SPR (Biacore 3000), recombinant S protein immobilised, Fab at 2.5-0.3125 μg/ml

B1: 抗冠状病毒人源性基因工程抗体Fab片段AS3-3 (Fab, V domains shown)
VH: EVKLVESGGGVVQPGRSLRLSCAASGFRFSTYAIHWVRQAPGKGLEWVARISHDGSQTHYADSVQGRFGVSRDNSNYTAYVQLNSLRPDDTAVYFCARAYSSTPDYGMDVWGQGTAVTVSS
VL: EIVMTQSPLSPVTLGQPASISCKSSQSLVDTNGNTYLIWFHQRPGQSPRRLIYQVSKRDSGVPDRFSGSGTDFTLKISRVEAEDVGVYFCMQGTYRPPTLGQGTKVEIKR
notes: also called 阳性克隆AS3-3; 抗SARS病毒人源性抗体IgG Fab片段
  Ka: 5.05e+07 M⁻¹
  Kd: 19.8 nM
  koff: 0.00306 s⁻¹
  kon: 154000 M⁻¹ s⁻¹
